Results taken from PMC3474754.

Target: full-length uncleaved Reelin (FL-Reelin) (UniProt Q60841)
Test: cross-linking; BS3 cross-linker, 30 minutes on ice, on FL- or C-cleaved Reelin in conditioned medium; anti-Reelin (G10) immunoblot

Q: For “full-length uncleaved Reelin (FL-Reelin), Q60841 27-3461”, which stoichiometry N is on record?
A: 2
